Usually Kd stands for a measure of binding affinity in units of concentration. A low value points to a tighter complex.

In paper PMC11239676 (2024) one finds Kd data, which are given here for 3 molecules.

Assay [1] concerns the target T1, 15N-labelled NHR4 MYND domain of RUNX1T1 (UniProt Q06455 510-559, 15N-labelled).
T1 chain: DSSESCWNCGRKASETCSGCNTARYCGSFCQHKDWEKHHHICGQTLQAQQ
Description: NMR; pH 6.

Assay [2] has as its target T1, 15N-labelled NHR4 MYND domain of RUNX1T1. Description: NMR; pH 7.5.

Ac-TISNPPPLISSAK-NH2 [NCOR2 peptide (human NCOR2 residues 1101-1113)] yielded a Kd in assay [1] of 370 µM.

Ac-TLNQPPPLLRPTL-NH2 [RCOR3_1 peptide (human RCOR3 residues 410-422)] registered a Kd in assay [1] of 820 µM. Compared with the last molecule, the Kd is about 2.2-fold higher. Consider Ac-LNQPPPPLIRPAN-NH2 [RCOR3_3 peptide (human RCOR3 residues 448-460)], for which the Kd in assay [2] was 370 µM; in assay [1], 680 µM.
